Laboratory results: the DeepSol protein solubility set

Assay: soluble on expression in E. coli; label from the status in PepcDB or PDB records

Question: Which “soluble on expression in E. coli” value does the source give for “MYELTEDFKLRKITKYELDGIDEREDLLVIPPSSKAGPCGNACLFCYLLQNPPEMIYKVPRHDTLNDPDLENRIRYARKHYDLWIRVTDTSGNIKFDENRIKSLYDAGLDEIQISVHTTKKDVRARLMRNRQAGKLIDLLPLVAKHFRTIADIILTPGFNVEDIGEIIEDLDSMGVHEVRLFPVGVTRYNKFGVRPLTREELSYVKGIALEKDKELAIKVVIPPIFLALLGEFTTGLEPFDIEPDFPTYIFTGELAYQEMKRLFPRVNVIMVKNEFFGGNIGSAGLLTGRDILREVEKLPEVDLGLIILPELMFYGDMTLDGWRRQELFSKILIEKGYIVETALEPTEIPRVIEKVTL” here?
Answer: not soluble

Question: For “MSLSLEYKGTFGSINAGYADWNSGFVNTHRGEVWKVTADFGVNFKEAEFYSFYESNVLNHAVAGRNHTVSAMTHVRLFDSDMTFFGKIYGQWDNSWGDDLDMFYGFGYLGWNGEWGFFKPYIGLHNQSGDYVSAKYGQTNGWNGYVVGWTAVLPFTLFDEKFVLSNWNEIELDRNDAYTEQQFGRNGLNGGLTIAWKFYPRWKASVTWRYFDNKLGYDGFGDQMIYMLGYDFEGHHHHHH”, which “soluble on expression in E. coli” value is on record?
Answer: not soluble

Question: Which “soluble on expression in E. coli” value does the source give for “MGSDKIHHHHHHMKYNPHKYQTYATNFILEHPIAAVFLEMGLGKSVITLTAIFDLCLDSFEIGKVLVIAPLRVARDTWPAEINKWEHLKGLEFSVAIGTKQERLAALRKPASVYLINRENVDWLVNKSGIPFDYDMVVIDELSSFKSYGAKRFKSLLKVRPRAKRIVGLTGTPSSNGLMDLWAEFRILDMGKRLGRYITHYRNSFFTPDKRNQQIVFSYKPLPGAEDAIYQLISDITISMESVDFLKMPECMINEVPVYLNDKEQSVYDRFREEMVLEFADEEIDAMNAAVLSGKLLQMANGAIYDDDKNTHIIHDRKLDALEDLIEGANGKPVLIAYWYNHDLERIKAKFNVREIKTSKDIKDWNNGDISVAVIHPASAGHGLNLQSGGSTLIWFGLTWSLELYQQTNARLWRQGQNETVVIHHIITKGTIDEDVMNALRRKEKTQSDLINAVKANLGKARDAV” here?
Answer: not soluble

Question: For “MNPKIEDSEFNWENEDIVMKLVDEKGKAHPVSKAELLESLESRKLGLETRVLDKYHENHVAFENVLVLDAPQDLETIVNLLLPWYMGKTLTLFEGPLNYPDSSRLAQIISKHNVDIVLGSDYNYSIPNPEYLKLFPVPSLKLVDLPNFESISNYLTISR”, which “soluble on expression in E. coli” value is on record?
Answer: not soluble

Question: With “MGSDKIHHHHHHMQEKKTLTFVVPAYNMTEYLERCVESLIASKRNDDIEVLIVDDGSSDGTLEMAKTFEARNPGIVRAIHQENKGHGGAVNTGIAAASGMYVKVVDADDWVGPESLEQVLAVLRDEVGKDDPLDMLVTNYVYDKVGKRNKHVVNFRHAMEPGKRLTWDDLGHFGLTEYILMHALVYRTAVVRESKMQLPEHTFYVDFIYAYQPFPWVKSLQYLDTPFYHYFIGRDGQSVQTDVMIRRVDQLRLVNQCMVHATPERGTVPDGLYRYMIHFLAIESSVASVFMILSREPENYEKKKAMWADIEAYSPTIYKDVRKKAMSRALNLRGSAGRFVIRKGYFLAEHVVGFN” as the sequence, how does the “soluble on expression in E. coli” value read?
Answer: not soluble

Question: With “GPGSMAHSLTWKLLSPEQTHECLTAPDVPSIRSVLKKIDEACDGKLIGAAKYNEGKVMIVLDMLAHLILFCKSRSMSPEKVSTLVGIVIKIHEESMSGGYTRAKSYHLMRDLMIKHSVPRPPFSCGVFTVRDAQEIDEYMLRSYYRHYKMYFYAFVPRQVMNVRCLDVTHIHQVPPVGLPSLSTAVVESEWRTKVEEQRREAEEQAMQEGEIASDAYEEERMRNRLLADPHYSDGIREQLECIKKEVSSKAVGRLDEIEMRLQEIEKKVAESFARSDSKQGRRKK” as the sequence, how does the “soluble on expression in E. coli” value read?
Answer: soluble

Question: With “MLIDDIDFADLYLQQLKLAHRTEKTPDHWDQRAEKMAENCASPTDSYLQQLIAKIDLQGAQTLFDMGCGPGTVSLALADKLTTVYGVDYSQGMLNVAARRAAALKADNVHWIQRAWEEDWSDLPRCDIAVASRSTLVADMRHAMSKLNNQARLRVYTTHLVSTSFVSPAIQRAAGREVIELPNYIFALNVLYQMGIYAHVDFIRGQNCQQDNSTWERFEQNVSWSLGALNDDERERLYHWYQQQDARALAPASRDWALIWWDSVPQEAL” as the sequence, how does the “soluble on expression in E. coli” value read?
Answer: not soluble

Question: For “GSMTEIALIGNPNSGKTSLFNLITGHNQRVGNWPGVTVERKSGLVKKNKDLEIQDLPGIYSMSPYSPEEKVARDYLLSQRADSILNVVDATNLERNLYLTTQLIETGIPVTIALNMIDVLDGQGKKINVDKLSYHLGVPVVATSALKQTGVDQVVKKAAHTTTSTVGDLAFPIYDDRLEAAISQILEVLGNSVPQRSARFYAIKLFEQDSLVEAELDLSQFQRKEIEDIIRITEEIFTEDAESIVINERYAFIERVCQMAESHTEDFALTLS”, which “soluble on expression in E. coli” value is on record?
Answer: soluble

Question: For “MGHHHHHHSHMANSMANSLSSTQTDYRLSDDLLGPVLAILDAYIDPYLAKGLVSAGCVNKLAIEGKRLQLGLVYPYPCMTQYRDTVMALTNKLAVLDAIDEVECEIDFQPKVYSAIASIAPIANVKQVIAVASGKGGVGKSTTAVNLALALAAEGAQVGILDADIYGPSVPLMLGIPNFRPVSPDGKHMTAASAYGIAAQSIGFMLSGDEAAVWRGPMAAGALAQLLNETQWPELDYLVVDMPPGTGDIQLTLSQKVPVSGAVIVTTPQDIALADAKKGITMFQKVNIPVLGIVENMSFHLCPECGHKEHPFGTHGGSKMAERYQVPLLGALPLHINIREAMDVGAPTVVAEPDSEVAALYREIARKVGAELALKQSQKTVSISVSDDE”, which “soluble on expression in E. coli” value is on record?
Answer: not soluble

Question: Which “soluble on expression in E. coli” value does the source give for “MAQEDVTAVATNGAGPVETHLVFTEFKQMLLVEAQKVGDAVTFYKSAFGAIESGHSLYPKRKLDQELPHVLSSELNLAGSSFVVCDVSSLPGFSTAKSEGSGVTFLLGTKDAEAAVAKAVDAGAVKVEVTEAEVELGFKGKVTDPFGVTWIFAEKKTVITDENKEV” here?
Answer: soluble

Question: Which “soluble on expression in E. coli” value does the source give for “MGSDKIHHHHHHMSIPLAFIICTEPGRLESQSLMLASSIRKFCGNLKDTPIYSFHPRVGEPISHQTQEAFAALQVIHQQIPINQEFHEYYLANKPLVCAYAEQNIDAEILVFLDSDKCLFAEPTEFLLPENCNVRVRPEYGQGIGSTGSQDPQEWYWQRLYQVLGVKREIFVNTPIGNKRIRAYWNSGLVAVRRSAGIFTAWKENFTKVMHLDITPPQGIYFVEQSVLSVTLCALVDNIEHFSLNYSYPLPLHNRLSPELRLQDWDDITSIHYFNLFFYNDWNTQIKKLKKFNITSDKYKWLSQEVVRLNMSRTSVLHRYMLAIRRIEQKLQKFNIKINLSSLIEKTAKF” here?
Answer: not soluble

Question: For “MGSDKIHHHHHHKDDEESTSGYDPNKPIVLTDFYPPEGKLATQVILNGSNFGDSKENVKVFFNDKEASVISVKDDRMLVLAPKRASTIEDPECVVKVQVHEQIEEYKQTFDYYIQTTVTTLVGGSTSAQVNPTGTIPLSEAQFRANIDRCICVDQDKNVFFLVDNDGKFAAFMLNEEADKLISLKSDINALFNSPVLGYNSKDDIVYQFWANRDSHEVYYFDPKTDYAPTTAISSISWDDPNFPNIEGFGVWAAKCNFTMGPDGKMYSRMLGGNLVRIDVENARGENLTNGDLVGTKDGSAYGLVFDPQDENVFYFSNNDKHCIYKYDLRTKECACWAGQEGKSGYLDGPIGQAMFNKPGQMCVDSEGNIILTDTENHCIRKITMSTGYVSTLAGKPQNSGYVNGSAEDAQFKKPLGICIDNDDVMYIGDSENRAIRRLAVE”, which “soluble on expression in E. coli” value is on record?
Answer: not soluble

Question: With “MGSDKIHHHHHHMILVTGANGLVGSFLCNELAGKGYRVKALVREKSDTSLLKAVAGSIELVYGDITDAGSLVDAMEDVMCVVHTAAVISFWNKKNKEMYQTNVVGTRNVVDVALEKGVKKMIHISSIAAIGRKATDTRIDEKNNWEESAVNTAYAVTKHQAELEIFRAVEEGLHAVIINPSVILGPGLKGTSSVRLFEYVQQKGKFYTDGDLNYVDVRDVVESIEYFISHETPAGERYILNGGTVSFKTFFEKIAEMLHTNPPSVKASDWMKQIVWRVEAIKAFITGKEPLITKSTARTATNKFEYSADKIMQLSQRSFRPLQDTIYWTCKQLF” as the sequence, how does the “soluble on expression in E. coli” value read?
Answer: not soluble

Question: For “MGSDKIHHHHHHMNSIVNDLNRALAQHLLVNVYQTNQEVVYTGYVTTVSDTGIILATYDDYGIPDGAVFLDLTAIDEVEFSSDDLDNMAFRIQTAQDEQFVQAGGLTLQFDGHRDLKRQVLSHAWVDHLVLMLVLKDDEHFYEGIVTSVAAEQVSLQLLNKFDYTDQPLLTLTPKDIEVIEFQGQELTLQGIALPHLQKLSHVAPTTVTDADQFVPTLQQLVGKEPLVALVPKHNRELFFVGRINTVTADGVIMNLLDMTGQFGGYTLMRLSELHEIVLKSDYLQTMRLFALLNRARQQPIQPVLNDERLFDATVDQFGARISQAAAFRTIIRLKLHDGTDLLGFPSQVGGQRFIFHEIDDQQVDQVGQVYRLADVDEVAFGYLDAYLVERQLRVEGDL”, which “soluble on expression in E. coli” value is on record?
Answer: not soluble
